Experimental data reported in article PMC11437124 (Nature Communications, 2024).

Molecular target: human TREM2 extracellular domain (ECD) (Homo sapiens, UniProt Q9NZC2)
Sequence (Q9NZC2 19-174): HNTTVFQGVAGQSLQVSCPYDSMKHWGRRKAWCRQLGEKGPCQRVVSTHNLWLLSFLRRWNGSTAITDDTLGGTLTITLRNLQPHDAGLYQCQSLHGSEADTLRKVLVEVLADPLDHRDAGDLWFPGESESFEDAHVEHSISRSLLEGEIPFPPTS

B1: R18-11-01 (antibody, V domains shown)
VH: AVQLVESGGGLVQPKESLKISCAASGFTFINAAIYWVRQAPGKGLEWVARIRTKPDNYATYYADSVKGRFTISRDDSKSMVYLQMHNLKTEDTAMYYCTAATTGIKFDYWGQGVMVTVSA
VL: DIVMTQSPSSLAVSAGETVTIDCKSSQSLLYSGNQKTYLAWYQQKPGQSPKLLIYWASTRQSGVPDRFIGSGSGTDFTLTISSVQAEDLAIYYCQQYYDTPLTFGSGTKLEIK
- binding result: binds

B2: R18-11-07 (antibody, V domains shown)
VH: AVQLVESGGGLVQPKESLRISCAASGFTFSNAAMYWVRQAPGKGLEWVARIRTKPNSYAPYYADSVRGRFTISRDDSKSMVYLQMDNLKTEDTAMYYCTAGGNSGYSDYWGQGVMVTVSS
VL: DIVMTQSPSSLAVSAGETVTIDCKSSQSLLYSGNQKTYLAWYQQKPGQSPKLLIYWASTRQSGVPDRFIGSGSGTDFTLTISSVQAEDLAIYYCQQYYDTPLTFGSGTKLEIK
- binding result: binds

B3: R18-11-05 (antibody, V domains shown)
VH: AVQLVESGGGLVQPKASLKISCVASGFTFSKNAMYWVRQAPGKGLEWVARIRTKPNNYAAYYADSVKGRFTISRDDSESMVYLQMDNLKTEDTAMYYCTAGDFNSPFDFWGQGVMVTVSS
VL: DIVMTQSPSSLAVSAGETVTIDCKSSQSLLYSGNQKTYLAWYQQKPGQSPKLLIYWASTRQSGVPDRFIGSGSGTDFTLTISSVQAEDLAIYYCQQYYDTPLTFGSGTKLEIK
- binding result: binds

B4: R18-12-14 (antibody, V domains shown)
VH: AVQLVESGGGLVQPKESLKISCAVSGFTFTNAAMYWVRQAPGKGLEWIARIRTQPNNYATYYADSVRGRFTTSRDDSKSMVYLQMDNLKTEDTAMYYCTAGRATGTPFDYWGQGVMVTVSS
VL: DIVMTQSPSSLAVSAGETVTIDCKSSQSLLYSGNQKTYLAWYQQKPGQSPKLLIYWASTRQSGVPDRFIGSGSGTDFTLTISSVQAEDLAIYYCQQYYDTPLTFGSGTKLEIK
- binding result: binds

B5: R18-11-11 (antibody, V domains shown)
VH: AVQLVESGGGLVQPKESLKISCAASGFTFSNAAMHWVRQAPGKGLEWVARIRTRPNNYATYYADSVKGRFTISRDDSKSMVYLQMDNLKTEDTAMYYCTAGTGSSPFAYWGQGTLVTVSS
VL: DIVMTQSPSSLAVSAGETVTIDCKSSQSLLYSGNQKTYLAWYQQKPGQSPKLLIYWASTRQSGVPDRFIGSGSGTDFTLTISSVQAEDLAIYYCQQYYDTPLTFGSGTKLEIK
- binding result: binds

B6: R18-12-24 (antibody, V domains shown)
VH: AVQLVESGGGLVQPKESLKISCAASGFTFSNAAMYWVRQAPGKGLEWVARIRTKPNNYATYYADSVKGRFTISRDDSKSMVYLQMDNLKTEDTAMYYCTADYSSYIRFAYWGQGTLVTVSS
VL: DIVMTQSPSSLAVSAGETVTIDCKSSQSLLYSGNQKTYLAWYQQKPGQSPKLLIYWASTRQSGVPDRFIGSGSGTDFTLTISSVQAEDLAIYYCQQYYDTPLTFGSGTKLEIK
- binding result: binds

B7: R18-12-21 (antibody, V domains shown)
VH: AVQLVESGGGLVQPKESLKLSCAASGFTFSDAAMYWVRQAPGKGLEWVARIRTKPNNYATYYADSVKGRFTISRDDSKSMVYLQMDNLKTEDTAMYYCTALFLIVAPFAYWGQGTLVTVSS
VL: DIVMTQSPSSLAVSAGETVTIDCKSSQSLLYSGNQKTYLAWYQQKPGQSPKLLIYWASTRQSGVPDRFIGSGSGTDFTLTISSVQAEDLAIYYCQQYYDTPLTFGSGTKLEIK
- binding result: binds

B8: R18-11-10 (antibody, V domains shown)
VH: AVQLVESGGGVVRPKESLRISCAASGFTFSNVAMYWVRQAPGKGLEWVARIRTKPNNYATNYADSVKGRFTISRDDSNSMVNLQMENLKTEDTAMYYCTAVGGHNWFAYWGQGTLVTVSS
VL: DIVMTQSPSSLAVSAGETVTIDCKSSQSLLYSGNQKTYLAWYQQKPGQSPKLLIYWASTRQSGVPDRFIGSGSGTDFTLTISSVQAEDLAIYYCQQYYDTPLTFGSGTKLEIK
- binding result: binds

B9: R18-11-12 (antibody, V domains shown)
VH: AVQLVESGGGLVQPKESVKISCAASGFTFSNAAMYWVRQAPGKGLEWIARIRSKPHNHATYYADSVKGRFTISRDDSESMVYLQMDNLKTEDTAMYYCTSDTGPNWFTYWGQGTLVTVSS
VL: DIVMTQSPSSLAVSAGETVTIDCKSSQSLLYSGNQKTYLAWYQQKPGQSPKLLIYWASTRQSGVPDRFIGSGSGTDFTLTISSVQAEDLAIYYCQQYYDTPLTFGSGTKLEIK
- binding result: binds

B10: R18-11-03 (antibody, V domains shown)
VH: AVQLVESGGGLVRPKESLKISCAASGFTFSNAAMYWVRQAPGKGLEWVARIRSKPNNYATHYADSVKGRFIISRDDSKGMVYLQMDNLKTEDTAKYYCTAAGGGYGFDDWGQGVMVTVSS
VL: DIVMTQSPSSLAVSAGETVTIDCKSSQSLLYSGNQKTYLAWYQQKPGQSPKLLIYWASTRQSGVPDRFIGSGSGTDFTLTISSVQAEDLAIYYCQQYYDTPLTFGSGTKLEIK
- binding result: binds

B11: R18-11-02 (antibody, V domains shown)
VH: AVQLVESGGGLVQPKESLKISCAASGFTFSNAAMYWVRQAPGKGLEWVARIRTKPNNYATYYADSMKGRFTISRDDSKSMVYLQMGNLKTEDTAMYYCTAELITTAFDYWGQGVMVTVSS
VL: DIVMTQSPSSLAVSAGETVTIDCKSSQSLLYSGNQKTYLAWYQQKPGQSPKLLIYWASTRQSGVPDRFIGSGSGTDFTLTISSVQAEDLAIYYCQQYYDTPLTFGSGTKLEIK
- binding result: binds

B12: R18-12-22 (antibody, V domains shown)
VH: AVQLVESGGGLVQPKESLKISCAASGFTFSNAAIYWVRQAPGKGLEWVARIRTKPNNYATYYADSVKGRFTISRDDSKSMVYLQMDNLKTEDTAMYYCTAGYYSGGPFAYWGQGTLVTVSS
VL: DIVMTQSPSSLAVSAGETVTIDCKSSQSLLYSGNQKTYLAWYQQKPGQSPKLLIYWASTRQSGVPDRFIGSGSGTDFTLTISSVQAEDLAIYYCQQYYDTPLTFGSGTKLEIK
- binding result: binds

B13: R18-12-23 (antibody, V domains shown)
VH: AVQLVESGGGLVQPKESLKISCAASAFSFSNVAMYWVRQAPGKGLEWIARIRTKPNNYATYYADSVKGRFTISREDSKSMVYLQMDNLKTEDTATYYCTADNYPGGGFRYWGQGTLVTVSS
VL: DIVMTQSPSSLAVSAGETVTIDCKSSQSLLYSGNQKTYLAWYQQKPGQSPKLLIYWASTRQSGVPDRFIGSGSGTDFTLTISSVQAEDLAIYYCQQYYDTPLTFGSGTKLEIK
- binding result: binds

B14: R18-11-06 (antibody, V domains shown)
VH: AVQLVESGGGLVQPKESLKISCAASGFTFSNAAMYWVRQAPGKGLEWVARIRTQPNNYATYYADSVKGRFTISRDDSKSVVYLQMDNLKTADTAMYYCTAGYGYNLFDYWGQGVMVTVSS
VL: DIVMTQSPSSLAVSAGETVTIDCKSSQSLLYSGNQKTYLAWYQQKPGQSPKLLIYWASTRQSGVPDRFIGSGSGTDFTLTISSVQAEDLAIYYCQQYYDTPLTFGSGTKLEIK
- binding result: binds

B15: R18-12-19 (antibody, V domains shown)
VH: AVQLVESGGGLVQPKESLKISCAASGFTFSNAAMYWVRQAPGKGLEWVARIRTKPNNYATYYTDSVKGRFTISRDDSKSMVYLQMDNLKTEDTAMYYCTAEGSSRNWFAYWGQGTLVTVSS
VL: DIVMTQSPSSLAVSAGETVTIDCKSSQSLLYSGNQKTYLAWYQQKPGQSPKLLIYWASTRQSGVPDRFIGSGSGTDFTLTISSVQAEDLAIYYCQQYYDTPLTFGSGTKLEIK
- binding result: binds

B16: R18-11-13 (antibody, V domains shown)
VH: AVQLVESGGGLVQPKESLKISCAASGFTFSNVAMYWVRQAPRKGLEWVARIRTKPNNYATYYADSVKGRFTISRDDSKSMVYLQMDNLKTDDTAMYYCTAGVYYGSMDAWGQGTSVTVSS
VL: DIVMTQSPSSLAVSAGETVTIDCKSSQSLLYSGNQKTYLAWYQQKPGQSPKLLIYWASTRQSGVPDRFIGSGSGTDFTLTISSVQAEDLAIYYCQQYYDTPLTFGSGTKLEIK
- binding result: binds

B17: R18-12-20 (antibody, V domains shown)
VH: AVQLVESGGGLVQPKESLKISCAASGFTLSTVAMYWVRQAPGKGLEWVARIRTKPNNYAIYYADSVKGRFTISRDDSKSMVYLQMDNLKTEDTAMYYCTAPGIIRAPFAYWGQGTLVTVSS
VL: DIVMTQSPSSLAVSAGETVTIDCKSSQSLLYSGNQKTYLAWYQQKPGQSPKLLIYWASTRQSGVPDRFIGSGSGTDFTLTISSVQAEDLAIYYCQQYYDTPLTFGSGTKLEIK
- binding result: binds

B18: R18-12-17 (antibody, V domains shown)
VH: AVQLVESGGGLVKPKESLKISCAASGFTFSNAAMYWVRQAPGKGLDWVARIRTKPYNYATFYADSVKGRFTISRDDSKNMVYLQMDNLKTEDTAVYYCTTDGEPRPRFAYWGQGTLVTVSS
VL: DIVMTQSPSSLAVSAGETVTIDCKSSQSLLYSGNQKTYLAWYQQKPGQSPKLLIYWASTRQSGVPDRFIGSGSGTDFTLTISSVQAEDLAIYYCQQYYDTPLTFGSGTKLEIK
- binding result: binds

B19: R18-11-08 (antibody, V domains shown)
VH: AVQLVESGGGLVQPKESLKISCAASGFTFSNAAMYWVRQAPGKGLEWVARIRTKPNNYATYYADSVKGRFTISRDDSKSMVYLQMDNLKTEDTAMYYCTAAYYSGPFAYWGQGTLVTVSS
VL: DIVMTQSPSSLAVSAGETVTIDCKSSQSLLYSGNQKTYLAWYQQKPGQSPKLLIYWASTRQSGVPDRFIGSGSGTDFTLTISSVQAEDLAIYYCQQYYDTPLTFGSGTKLEIK
- binding result: binds

B20: R18-11-04 (antibody, V domains shown)
VH: AVQLVESGGGLVQPKESLKISCAASGFTFSNAAMYWVRQAPGKGLEWVARIRTQPNNYATYYADSVKGRFTISRDDAKSMVYLQMDNLKTEDTAMYYCTAGTVEVTSTWWGQGVMVTVSS
VL: DIVMTQSPSSLAVSAGETVTIDCKSSQSLLYSGNQKTYLAWYQQKPGQSPKLLIYWASTRQSGVPDRFIGSGSGTDFTLTISSVQAEDLAIYYCQQYYDTPLTFGSGTKLEIK
- binding result: binds

B21: R18-12-18 (antibody, V domains shown)
VH: AVQLVESGGGLVQPKESLKISCAASGFTFRNAAMFWVRQAPGKGLEWVARIRTKPNNFATYYADSVKGRFTISRDDSKSMVYLQMDNLKTEDTAMYYCTGFYNDGAPFDYWGQGTLVTVSS
VL: DIVMTQSPSSLAVSAGETVTIDCKSSQSLLYSGNQKTYLAWYQQKPGQSPKLLIYWASTRQSGVPDRFIGSGSGTDFTLTISSVQAEDLAIYYCQQYYDTPLTFGSGTKLEIK
- binding result: binds
